{"source": "patent US20040258705A1", "about": "“Use of lectins to promote oligomerization of glycoproteins and antigenic molecules” (Antigenics Inc., priority 2003, published 2004)", "key": {"[1]": {"details": "Sigma lectin list; cited from earlier work"}, "gp96": {"target": "gp96 (Mus musculus, UniProt P08113)", "assay": "Analytical SEC of Meth A gp96 with added Con A", "type": "binding, murine", "experimental": "To verify gp96 was oligomerized with Con A, a common homogenate from Meth A-induced murine fibrosarcoma tissue was prepared and processed using a process that included Con A and DEAE column chromatography. The final purified gp96 preparation was divided in two. To one half of the material, exogenous con A was added to a final concentration of 50 ug/mL; buffer alone was added to the other as a control, both samples incubated at 37° C. for 2 hr and then fractionated by SEC (Superdex 200). Individual fractions were analyzed by SDS-PAGE, and by gp96- and con A-specific ELISA. Analytical data for material […] is shown in the left panel; that to which con A was added to the right. In the left panel the peak of gp96 is in fraction 5 and con A levels as detected by specific ELISA are low. In the right panel (con A added) two peaks of gp96 are evident as shown by SDS-PAGE (inset; peak fractions 3 (arrow) and 5) and gp96 ELISA (fractions 3 and 5) as well as a distinct peak of Con A centered on fraction 3.\nCon A was added (50 ug/mL final) to an aliquot of this gp96 sample (conc. 500 ug/ml), the sample incubated at RT and hourly samples were taken (T=1 through T=5) and analyzed by SEC. A sample comprising con A alone was also run. […] Each sample was then re-analyzed by SEC. […]"}, "Meth A cells": {"test_system": "Meth A cells", "assay": "In vivo Meth A tumor inhibition (tumor protection / rejection) assay", "parameters": "species or system BALB/c mice", "details": "for tumor rejection activity, Con A added in process or to final product: in process 30 and 300 μg/ml, following purification 30 μg/ml", "experimental": "(§1) In vivo Meth A growth inhibition assay: BALB/c mice (n=30/group) were immunized on day 0 and day 7 with 10 or 50 μg of gp96 intradermally in the flank. On study day 14, mice were challenged with 1×10^5 Meth A cells intradermally in a total volume of 100 μl. Growing tumors were monitored during the subsequent four weeks. All animals were euthanized on study day 41 after a final tumor measurement. Data was reported as percentage of animals that are tumor-free on study day 41. Control groups included un-immunized (diluent—negative control) and immunized with irradiated Meth A cells (positive control).\nas §1, with “(n=10/group)” for “(n=30/group)”, “10” for “10 or 50”, “gl.” for “μl.”\nas §1, with “(n=10/group)” for “(n=30/group)”, “10” for “10 or 50”\nas §1, with “mice (n=10/group)” for “mice (n=30/group)”, “with 0.3” for “with 10”, “or 3” for “or 50”, “gp96 alone or in combination with Con A” for “gp96”"}}, "note": "Entries after “also recorded” stand apart in the source; their conditions may differ.", "data": [{"molecule": "PHA-L: Phaseolus Vulgaris lectin, Sigma product", "values": [{"measurement": "Specificity Sugar", "setting": "[1]", "result": "oligosaccharide"}]}, {"molecule": "PHA-E: Phaseolus Vulgaris lectin, Sigma product", "values": [{"measurement": "Specificity Sugar", "setting": "[1]", "result": "oligosaccharide"}]}, {"molecule": "CO[C@H]1O[C@H](CO)[C@@H](O)[C@H](O)[C@@H]1O", "note": "[α-MM, Methyl α-D-Mannopyranoside, reference compound]", "values": [{"measurement": "effect on high molecular weight gp96-Con A complex in SEC", "setting": "gp96; equal volume of PBS containing 10% α-MM added to 5 hr gp96 + Con A sample", "result": "dissociated the high molecular weight complex"}]}, {"molecule": "Concanavalin A [Con A]", "values": [{"measurement": "Specificity Sugar", "setting": "[1]", "result": "α-man, α-glc"}, {"measurement": "elution position of gp96 in SEC", "setting": "gp96; Con A 50 ug/mL added to Meth A gp96, Superdex 200 or superose 6", "result": "mediated a shift in the elution position of the gp96 dimer peak"}]}, {"molecule": "Pseudomonas aeruginosa (PA-I): lectin, Sigma product (protein, UniProt Q05097 2-122, looked up) PA-I galactophilic lectin: AWKGEVLANNEAGQVTSIIYNPGDVITIVAAGWASYGPTQKWGPQGDREHPDQGLICHDAFCGALVMKIGNSGTIPVNTGLFRWVAPNNVQGAITLIYNDVPGTYGNNSGSFSVNIGKDQS", "values": [{"measurement": "Specificity Sugar", "setting": "[1]", "result": "gal"}]}, {"molecule": "HSPPC-96 + Con A (in process): Meth A derived gp96 with Con A added during the purification process, before the DEAE column (protein, UniProt P08113 22-802, looked up, tumor-derived; Con A added, Meth A derived gp96 with Con A added during the purification process, before the DEAE column) Endoplasmin: DDEVDVDGTVEEDLGKSREGSRTDDEVVQREEEAIQLDGLNASQIRELREKSEKFAFQAEVNRMMKLIINSLYKNKEIFLRELISNASDALDKIRLISLTDENALAGNEELTVKIKCDKEKNLLHVTDTGVGMTREELVKNLGTIAKSGTSEFLNKMTEAQEDGQSTSELIGQFGVGFYSAFLVADKVIVTSKHNNDTQHIWESDSNEFSVIADPRGNTLGRGTTITLVLKEEASDYLELDTIKNLVRKYSQFINFPIYVWSSKTETVEEPLEEDEAAKEEKEESDDEAAVEEEEEEKKPKTKKVEKTVWDWELMNDIKPIWQRPSKEVEEDEYKAFYKSFSKESDDPMAYIHFTAEGEVTFKSILFVPTSAPRGLFDEYGSKKSDYIKLYVRRVFITDDFHDMMPKYLNFVKGVVDSDDLPLNVSRETLQQHKLLKVIRKKLVRKTLDMIKKIADEKYNDTFWKEFGTNIKLGVIEDHSNRTRLAKLLRFQSSHHSTDITSLDQYVERMKEKQDKIYFMAGSSRKEAESSPFVERLLKKGYEVIYLTEPVDEYCIQALPEFDGKRFQNVAKEGVKFDESEKTKESREATEKEFEPLLNWMKDKALKDKIEKAVVSQRLTESPCALVASQYGWSGNMERIMKAQAYQTGKDISTNYYASQKKTFEINPRHPLIRDMLRRIKEDEDDKTVMDLAVVLFETATLRSGYLLPDTKAYGDRIERMLRLSLNIDPEAQVEEEPEEEPEDTSEDAEDSEQDEGEEMDAGTEEEEEETEKESTEKDEL", "values": [{"measurement": "tumor rejection activity, Con A added in process at graded levels", "setting": "Meth A cells; Con A 3, 10, 30, 100, 300 ug/ml added before DEAE, 10 μg gp96, tumor-free on day 41", "result": "titratable increase in the tumor rejection activity"}, {"measurement": "tumor rejection activity, Con A added in process or to final product", "setting": "Meth A cells; 10 μg gp96", "result": "increase in the tumor rejection activity; also recorded: increases the tumor rejection activity"}]}, {"molecule": "scFv-purified Meth A gp96 + Con A: Meth A derived gp96 from anti-gp96 scFv immunoaffinity column, Con A added (protein, UniProt P08113 22-802, looked up, tumor-derived; Con A added) Endoplasmin: DDEVDVDGTVEEDLGKSREGSRTDDEVVQREEEAIQLDGLNASQIRELREKSEKFAFQAEVNRMMKLIINSLYKNKEIFLRELISNASDALDKIRLISLTDENALAGNEELTVKIKCDKEKNLLHVTDTGVGMTREELVKNLGTIAKSGTSEFLNKMTEAQEDGQSTSELIGQFGVGFYSAFLVADKVIVTSKHNNDTQHIWESDSNEFSVIADPRGNTLGRGTTITLVLKEEASDYLELDTIKNLVRKYSQFINFPIYVWSSKTETVEEPLEEDEAAKEEKEESDDEAAVEEEEEEKKPKTKKVEKTVWDWELMNDIKPIWQRPSKEVEEDEYKAFYKSFSKESDDPMAYIHFTAEGEVTFKSILFVPTSAPRGLFDEYGSKKSDYIKLYVRRVFITDDFHDMMPKYLNFVKGVVDSDDLPLNVSRETLQQHKLLKVIRKKLVRKTLDMIKKIADEKYNDTFWKEFGTNIKLGVIEDHSNRTRLAKLLRFQSSHHSTDITSLDQYVERMKEKQDKIYFMAGSSRKEAESSPFVERLLKKGYEVIYLTEPVDEYCIQALPEFDGKRFQNVAKEGVKFDESEKTKESREATEKEFEPLLNWMKDKALKDKIEKAVVSQRLTESPCALVASQYGWSGNMERIMKAQAYQTGKDISTNYYASQKKTFEINPRHPLIRDMLRRIKEDEDDKTVMDLAVVLFETATLRSGYLLPDTKAYGDRIERMLRLSLNIDPEAQVEEEPEEEPEDTSEDAEDSEQDEGEEMDAGTEEEEEETEKESTEKDEL", "values": [{"measurement": "tumor rejection activity, immunoaffinity (scFv) purified gp96 with Con A", "setting": "Meth A cells; 0.3 or 3 μg gp96 alone or in combination with Con A", "result": "increases the tumor rejection activity"}]}, {"molecule": "HSPPC-96 + Con A (final product): Meth A derived gp96 purified by standard procedure with Con A (30 ug/mL) added following purification (protein, UniProt P08113 22-802, looked up, tumor-derived; Con A added) Endoplasmin: DDEVDVDGTVEEDLGKSREGSRTDDEVVQREEEAIQLDGLNASQIRELREKSEKFAFQAEVNRMMKLIINSLYKNKEIFLRELISNASDALDKIRLISLTDENALAGNEELTVKIKCDKEKNLLHVTDTGVGMTREELVKNLGTIAKSGTSEFLNKMTEAQEDGQSTSELIGQFGVGFYSAFLVADKVIVTSKHNNDTQHIWESDSNEFSVIADPRGNTLGRGTTITLVLKEEASDYLELDTIKNLVRKYSQFINFPIYVWSSKTETVEEPLEEDEAAKEEKEESDDEAAVEEEEEEKKPKTKKVEKTVWDWELMNDIKPIWQRPSKEVEEDEYKAFYKSFSKESDDPMAYIHFTAEGEVTFKSILFVPTSAPRGLFDEYGSKKSDYIKLYVRRVFITDDFHDMMPKYLNFVKGVVDSDDLPLNVSRETLQQHKLLKVIRKKLVRKTLDMIKKIADEKYNDTFWKEFGTNIKLGVIEDHSNRTRLAKLLRFQSSHHSTDITSLDQYVERMKEKQDKIYFMAGSSRKEAESSPFVERLLKKGYEVIYLTEPVDEYCIQALPEFDGKRFQNVAKEGVKFDESEKTKESREATEKEFEPLLNWMKDKALKDKIEKAVVSQRLTESPCALVASQYGWSGNMERIMKAQAYQTGKDISTNYYASQKKTFEINPRHPLIRDMLRRIKEDEDDKTVMDLAVVLFETATLRSGYLLPDTKAYGDRIERMLRLSLNIDPEAQVEEEPEEEPEDTSEDAEDSEQDEGEEMDAGTEEEEEETEKESTEKDEL", "values": [{"measurement": "tumor rejection activity, Con A added in process or to final product", "setting": "Meth A cells; 10 μg gp96", "result": "increase in the tumor rejection activity; also recorded: increases the tumor rejection activity"}]}]}
